T1: His-GFP-Klp2 (S. pombe, UniProt Q9US03 1-817)
T1 sequence: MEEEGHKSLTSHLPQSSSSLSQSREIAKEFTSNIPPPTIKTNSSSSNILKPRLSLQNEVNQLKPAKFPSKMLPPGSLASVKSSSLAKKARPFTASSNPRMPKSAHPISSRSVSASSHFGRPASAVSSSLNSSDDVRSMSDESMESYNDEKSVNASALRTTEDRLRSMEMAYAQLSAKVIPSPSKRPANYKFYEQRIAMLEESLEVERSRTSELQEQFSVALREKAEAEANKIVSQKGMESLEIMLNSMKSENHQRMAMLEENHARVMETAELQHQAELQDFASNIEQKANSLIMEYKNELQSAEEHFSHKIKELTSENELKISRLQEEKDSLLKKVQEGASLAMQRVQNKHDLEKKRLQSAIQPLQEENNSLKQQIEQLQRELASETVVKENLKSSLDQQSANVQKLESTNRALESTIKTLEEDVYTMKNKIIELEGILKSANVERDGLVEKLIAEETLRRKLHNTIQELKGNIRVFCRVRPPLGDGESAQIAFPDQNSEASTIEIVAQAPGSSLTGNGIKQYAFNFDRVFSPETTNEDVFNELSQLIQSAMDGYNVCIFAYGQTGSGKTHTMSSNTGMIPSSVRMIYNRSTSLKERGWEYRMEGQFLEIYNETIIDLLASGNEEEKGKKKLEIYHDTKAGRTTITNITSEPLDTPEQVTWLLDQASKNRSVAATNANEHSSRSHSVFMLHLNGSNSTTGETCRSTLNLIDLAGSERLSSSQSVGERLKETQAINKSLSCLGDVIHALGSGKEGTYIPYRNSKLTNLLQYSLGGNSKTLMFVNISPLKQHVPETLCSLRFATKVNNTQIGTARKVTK

T2: StrepII-GFP-Klp2 (S. pombe, UniProt Q9US03 1-817)
T2 sequence: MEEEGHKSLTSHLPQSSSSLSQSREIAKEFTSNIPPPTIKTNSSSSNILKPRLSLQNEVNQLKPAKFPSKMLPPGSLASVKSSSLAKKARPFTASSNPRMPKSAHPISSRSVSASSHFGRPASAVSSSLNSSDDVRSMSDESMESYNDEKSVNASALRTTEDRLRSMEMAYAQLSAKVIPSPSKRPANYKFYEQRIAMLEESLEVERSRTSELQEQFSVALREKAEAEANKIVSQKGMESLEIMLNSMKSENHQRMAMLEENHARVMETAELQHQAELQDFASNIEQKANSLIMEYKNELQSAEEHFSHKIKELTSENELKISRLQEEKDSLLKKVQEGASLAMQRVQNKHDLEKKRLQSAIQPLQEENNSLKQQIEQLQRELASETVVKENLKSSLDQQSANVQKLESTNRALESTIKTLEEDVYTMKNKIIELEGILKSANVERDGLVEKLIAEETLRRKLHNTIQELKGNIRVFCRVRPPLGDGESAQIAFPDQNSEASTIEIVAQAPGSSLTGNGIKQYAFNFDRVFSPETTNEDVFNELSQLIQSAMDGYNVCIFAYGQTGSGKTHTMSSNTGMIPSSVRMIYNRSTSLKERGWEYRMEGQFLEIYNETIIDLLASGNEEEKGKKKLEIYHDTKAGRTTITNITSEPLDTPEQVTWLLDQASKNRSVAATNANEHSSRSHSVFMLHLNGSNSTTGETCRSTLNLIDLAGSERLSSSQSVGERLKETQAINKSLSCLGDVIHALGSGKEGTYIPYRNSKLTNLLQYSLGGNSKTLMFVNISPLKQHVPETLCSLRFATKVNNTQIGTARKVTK

B1: GST-Rsp1 (natural protein)
chain: MARTAFHDEFVDYYTILGAESTSSYVEIRQQYLKLVLRYHPDRNPGREAEVLPQFQLIQKAHEVLKDPKLRELFDQRRLLEAGRPDGVLRFRPKKSGPKNDISTKVASKVSVTMATKFAEKKKKQDRENVDSKDNNITNFSLHRSFSASGKMEKNNSFKEVSTSKSYISSGYLHPKTSPIFKKNGYATENVVDPISSSPRFKGPNYNKFNAKLYLESLREKRRTYTPLSEISNGLNSNGVENSSITKSSPRSSSSSNNERFKDTSEESIIFTSPNTPEHPSVYQTDITPEIKLEHSDNNSPSKPEIPFRHPTSKPLPPKPLSRSKSSSLSRNQTRSQLNDLSAENDSTSNSTEYDDQLQSILRSLAIEGDDDEVAKVLPKPPSVPTIQAPIPPEAPRNLTNASVDSYLNSFEMYQRRWSSYSIIYTQYAFQWQIFKNKCFQLDLMNTPGQSRLIDNWKEGSQAIQLFYAYEQMHLRALEELQSLKESLFASFGI
B2: Rsp1-mCherry-StrepII (natural protein)
chain: MARTAFHDEFVDYYTILGAESTSSYVEIRQQYLKLVLRYHPDRNPGREAEVLPQFQLIQKAHEVLKDPKLRELFDQRRLLEAGRPDGVLRFRPKKSGPKNDISTKVASKVSVTMATKFAEKKKKQDRENVDSKDNNITNFSLHRSFSASGKMEKNNSFKEVSTSKSYISSGYLHPKTSPIFKKNGYATENVVDPISSSPRFKGPNYNKFNAKLYLESLREKRRTYTPLSEISNGLNSNGVENSSITKSSPRSSSSSNNERFKDTSEESIIFTSPNTPEHPSVYQTDITPEIKLEHSDNNSPSKPEIPFRHPTSKPLPPKPLSRSKSSSLSRNQTRSQLNDLSAENDSTSNSTEYDDQLQSILRSLAIEGDDDEVAKVLPKPPSVPTIQAPIPPEAPRNLTNASVDSYLNSFEMYQRRWSSYSIIYTQYAFQWQIFKNKCFQLDLMNTPGQSRLIDNWKEGSQAIQLFYAYEQMHLRALEELQSLKESLFASFGI

Columns and labels:
His-GFP-Klp2 = molecular target: T1, His-GFP-Klp2; test: pull-down
StrepII-GFP-Klp2 = molecular target: T2, StrepII-GFP-Klp2; test: TIRF microscopy of purified proteins on microtubules

Binder | binding result (His-GFP-Klp2) | binding result (StrepII-GFP-Klp2)
B1 | binds | –
B2 | – | binds
